# B1: UGT76G1: wild-type Stevia rebaudiana-derived glycosyltransferase, amino acid sequence SEQ ID NO: 1 (protein)
# chain: MENKTETTVRRRRRIILFPVPFQGHINPILQLANVLYSKGFSITIFHTNFNKPKTSNYPHFTFRFILDNDPQDERISNLPTHGPLAGMRIPIINEHGADELRRELELLMLASEEDEEVSCLITDALWYFAQSVADSLNLRRLVLMTSSLFNFHAHVSLPQFDELGYLDPDDKTRLEEQASGFPMLKVKDIKSAYSNWQILKEILGKMIKQTKASSGVIWNSFKELEESELETVIREIPAPSFLIPLPKHLTASSSSLLDHDRTVFQWLDQQPPSSVLYVSFGSTSEVDEKDFLEIARGLVDSKQSFLWVVRPGFVKGSTWVEPLPDGFLGERGRIVKWVPQQEVLAHGAIGAFWTHSGWNSTLESVCEGVPMIFSDFGLDQPLNARYMSDVLKVGVYLENGWERGEIANAIRRVMVDEEGEYIRQNARVLKQKADVSLMKGGSSYESLESLVSYISSL
# modifications: The sequence is synthetized.
# B2: S147N-StSUS1: recombinase (crude enzyme) from E. coli BL21 (DE3) co-expressing mutant S147N and sucrose synthase StSUS1 (protein)
# chain: MENKTETTVRRRRRIILFPVPFQGHINPILQLANVLYSKGFSITIFHTNFNKPKTSNYPHFTFRFILDNDPQDERISNLPTHGPLAGMRIPIINEHGADELRRELELLMLASEEDEEVSCLITDALWYFAQSVADSLNLRRLVLMTNSLFNFHAHVSLPQFDELGYLDPDDKTRLEEQASGFPMLKVKDIKSAYSNWQILKEILGKMIKQTKASSGVIWNSFKELEESELETVIREIPAPSFLIPLPKHLTASSSSLLDHDRTVFQWLDQQPPSSVLYVSFGSTSEVDEKDFLEIARGLVDSKQSFLWVVRPGFVKGSTWVEPLPDGFLGERGRIVKWVPQQEVLAHGAIGAFWTHSGWNSTLESVCEGVPMIFSDFGLDQPLNARYMSDVLKVGVYLENGWERGEIANAIRRVMVDEEGEYIRQNARVLKQKADVSLMKGGSSYESLESLVSYISSL
# B3: G378P-StSUS1: recombinase (crude enzyme) from E. coli BL21 (DE3) co-expressing mutant G378P and sucrose synthase StSUS1 (protein)
# chain: MENKTETTVRRRRRIILFPVPFQGHINPILQLANVLYSKGFSITIFHTNFNKPKTSNYPHFTFRFILDNDPQDERISNLPTHGPLAGMRIPIINEHGADELRRELELLMLASEEDEEVSCLITDALWYFAQSVADSLNLRRLVLMTSSLFNFHAHVSLPQFDELGYLDPDDKTRLEEQASGFPMLKVKDIKSAYSNWQILKEILGKMIKQTKASSGVIWNSFKELEESELETVIREIPAPSFLIPLPKHLTASSSSLLDHDRTVFQWLDQQPPSSVLYVSFGSTSEVDEKDFLEIARGLVDSKQSFLWVVRPGFVKGSTWVEPLPDGFLGERGRIVKWVPQQEVLAHGAIGAFWTHSGWNSTLESVCEGVPMIFSDFPLDQPLNARYMSDVLKVGVYLENGWERGEIANAIRRVMVDEEGEYIRQNARVLKQKADVSLMKGGSSYESLESLVSYISSL
# B4: S147D-StSUS1: recombinase (crude enzyme) from E. coli BL21 (DE3) co-expressing mutant S147D and sucrose synthase StSUS1 (protein)
# chain: MENKTETTVRRRRRIILFPVPFQGHINPILQLANVLYSKGFSITIFHTNFNKPKTSNYPHFTFRFILDNDPQDERISNLPTHGPLAGMRIPIINEHGADELRRELELLMLASEEDEEVSCLITDALWYFAQSVADSLNLRRLVLMTDSLFNFHAHVSLPQFDELGYLDPDDKTRLEEQASGFPMLKVKDIKSAYSNWQILKEILGKMIKQTKASSGVIWNSFKELEESELETVIREIPAPSFLIPLPKHLTASSSSLLDHDRTVFQWLDQQPPSSVLYVSFGSTSEVDEKDFLEIARGLVDSKQSFLWVVRPGFVKGSTWVEPLPDGFLGERGRIVKWVPQQEVLAHGAIGAFWTHSGWNSTLESVCEGVPMIFSDFGLDQPLNARYMSDVLKVGVYLENGWERGEIANAIRRVMVDEEGEYIRQNARVLKQKADVSLMKGGSSYESLESLVSYISSL
# B5: T284S-StSUS1: recombinase (crude enzyme) from E. coli BL21 (DE3) co-expressing mutant T284S and sucrose synthase StSUS1 (protein)
# chain: MENKTETTVRRRRRIILFPVPFQGHINPILQLANVLYSKGFSITIFHTNFNKPKTSNYPHFTFRFILDNDPQDERISNLPTHGPLAGMRIPIINEHGADELRRELELLMLASEEDEEVSCLITDALWYFAQSVADSLNLRRLVLMTSSLFNFHAHVSLPQFDELGYLDPDDKTRLEEQASGFPMLKVKDIKSAYSNWQILKEILGKMIKQTKASSGVIWNSFKELEESELETVIREIPAPSFLIPLPKHLTASSSSLLDHDRTVFQWLDQQPPSSVLYVSFGSSSEVDEKDFLEIARGLVDSKQSFLWVVRPGFVKGSTWVEPLPDGFLGERGRIVKWVPQQEVLAHGAIGAFWTHSGWNSTLESVCEGVPMIFSDFGLDQPLNARYMSDVLKVGVYLENGWERGEIANAIRRVMVDEEGEYIRQNARVLKQKADVSLMKGGSSYESLESLVSYISSL
# B6: S285W-StSUS1: recombinase (crude enzyme) from E. coli BL21 (DE3) co-expressing mutant S285W and sucrose synthase StSUS1 (protein)
# chain: MENKTETTVRRRRRIILFPVPFQGHINPILQLANVLYSKGFSITIFHTNFNKPKTSNYPHFTFRFILDNDPQDERISNLPTHGPLAGMRIPIINEHGADELRRELELLMLASEEDEEVSCLITDALWYFAQSVADSLNLRRLVLMTSSLFNFHAHVSLPQFDELGYLDPDDKTRLEEQASGFPMLKVKDIKSAYSNWQILKEILGKMIKQTKASSGVIWNSFKELEESELETVIREIPAPSFLIPLPKHLTASSSSLLDHDRTVFQWLDQQPPSSVLYVSFGSTWEVDEKDFLEIARGLVDSKQSFLWVVRPGFVKGSTWVEPLPDGFLGERGRIVKWVPQQEVLAHGAIGAFWTHSGWNSTLESVCEGVPMIFSDFGLDQPLNARYMSDVLKVGVYLENGWERGEIANAIRRVMVDEEGEYIRQNARVLKQKADVSLMKGGSSYESLESLVSYISSL
# B7: L200Y: UGT76G1 (SEQ ID NO: 1) mutant, position 200 leucine to tyrosine (protein)
# chain: MENKTETTVRRRRRIILFPVPFQGHINPILQLANVLYSKGFSITIFHTNFNKPKTSNYPHFTFRFILDNDPQDERISNLPTHGPLAGMRIPIINEHGADELRRELELLMLASEEDEEVSCLITDALWYFAQSVADSLNLRRLVLMTSSLFNFHAHVSLPQFDELGYLDPDDKTRLEEQASGFPMLKVKDIKSAYSNWQIYKEILGKMIKQTKASSGVIWNSFKELEESELETVIREIPAPSFLIPLPKHLTASSSSLLDHDRTVFQWLDQQPPSSVLYVSFGSTSEVDEKDFLEIARGLVDSKQSFLWVVRPGFVKGSTWVEPLPDGFLGERGRIVKWVPQQEVLAHGAIGAFWTHSGWNSTLESVCEGVPMIFSDFGLDQPLNARYMSDVLKVGVYLENGWERGEIANAIRRVMVDEEGEYIRQNARVLKQKADVSLMKGGSSYESLESLVSYISSL
# modifications: The sequence is synthetized.
# How the values were obtained:
# Type in all cases: biochemical
# [1] = Kinetic parameters of purified glycosyltransferases for rebaudioside D; conditions: substrate RebD, purified enzyme
# Protocol: (§1) Activities of glycosyltransferase mutants and a WT glycosyltransferase were determined. A 3 mL catalytic reaction system was prepared from the following components: 1.2 mM rebaudioside E, 2 mM UDPG, 3 mM MgCl2, crude enzyme: 1 mg, and 100 mM potassium phosphate buffer with a pH of 7.2: the balance. A catalytic reaction was conducted on a shaker at 37° C. and 200 rpm, where a sample was collected at 0 min and 30 min. Sample treatment: 500 μL of a sample solution was pipetted and added to an EP tube; the EP tube was placed in boiling water at 95° C. for 15 min to stop a reaction, and then centrifuged in a centrifuge at 12,000 rpm for 1 min; and a resulting supernatant was collected and added to a new EP tube, filtered through an organic filter membrane (0.45 μm), and stored in a liquid-phase sample bottle for high-performance liquid chromatography (HPLC) analysis. Definition of an enzyme activity (U): an enzyme amount required for producing 1 μmol of a product within 1 min is defined as 1 enzyme activity unit.
# (§2) A final concentration of rebaudioside E was set to 10 μM to 2,000 μM or a final concentration of rebaudioside D was set to 50 μM to 2,000 μM. Rebaudioside E or rebaudioside D solutions of different concentrations each were mixed with an appropriate amount of each of the purified WT UGT76G1 and the mutant S195Q, and an enzyme activity was determined according to the enzyme activity assay method described above. A Michaelis Menten equation was used to calculate Kn, Vmax, Keat, and Keat/Km of the purified WT glycosyltransferase and the glycosyltransferase mutant.
# [2] = Kinetic parameters of purified glycosyltransferases for rebaudioside E; conditions: substrate RebE, purified enzyme
# Protocol: as §1, §2
# [3] = Preliminary screening: conversion of RebE by crude recombinases; conditions: 40° C., 12 h; for catalytic activity / conversion rate for RebE (in words): RebE 10 g/L
# Protocol: Recombinases were prepared with the mutant strains G87D-StSUS1, S147D-StSUS1, S147N-StSUS1, S195Q-StSUS1, L200Y-StSUS1, T284S-StSUS1, S285W-StSUS1, and G378P-StSUS1 and the WT strain UGT76G1-StSUS1, and then used to convert RebE or RebD to preliminarily screen out relatively-preferred mutants.
# The conversion of RebE adopted a 3 mL reaction system including. RebE as a substrate: 10 g/L, sucrose: 30 g/L, crude enzyme: 5 mg/mL, and 100 mM potassium phosphate buffer (pH 7.2): the balance. A RebE conversion reaction was conducted on a shaker at 40° C. and 200 rpm for 12 h, and corresponding conversion rates were shown in FIG. 1.
# [4] = Crude enzyme activity of glycosyltransferase mutants and WT (HPLC); conditions: 1.2 mM rebaudioside E, 2 mM UDPG, crude enzyme 1 mg, 37° C., 30 min
# Protocol: as §1
# The four mutant strains S195Q-StSUS1, L200Y-StSUS1, T284S-StSUS1, and S285W-StSUS1 screened out in the above conversion experiment were used to produce glycosyltransferase mutants, and the glycosyltransferase mutants and the WT glycosyltransferase UGT76G1 were tested for activities. […] Thus, the optimal mutant strain S195Q-StSUS1 was screened out.
molecule,measurement,setting,value
B1,Kcat,[1],0.20 ± 0.005 s⁻¹
same,Km,[1],478 ± 33 µM
same,Kcat,[2],2.00 ± 0.03 s⁻¹
same,Km,[2],170 ± 12.6 µM
B2,catalytic activity / conversion rate for RebE (in words),[3],basically no catalytic activity
B3,catalytic activity / conversion rate for RebE (in words),[3],basically no catalytic activity
B4,catalytic activity / conversion rate for RebE (in words),[3],low conversion rate
B5,RebE conversion rate relative to UGT76G1-StSUS1,[3],1.1 times
B6,RebE conversion rate relative to UGT76G1-StSUS1,[3],1.1 times
B7,enzyme activity (in words),[4],low enzyme activity

# — patent publication US20240287479A1, “GLYCOSYLTRANSFERASE MUTANT, AND METHOD FOR CATALYTIC SYNTHESIS OF REBAUDIOSIDE M USING GLYCOSYLTRANSFERASE MUTANT” (XINGHUA GL STEVIA CO., LTD, priority 2021, published 2024)
